Publication PMC3615140 (Molecular cell, 2013)
One block for each binder: values may come before it.

Tests used:
FLAG-Spp1 (purified) = target: T1, FLAG-Spp1 (purified) (S. cerevisiae, UniProt Q03012 1-353); experiment: pull-down
T1 sequence (looked up): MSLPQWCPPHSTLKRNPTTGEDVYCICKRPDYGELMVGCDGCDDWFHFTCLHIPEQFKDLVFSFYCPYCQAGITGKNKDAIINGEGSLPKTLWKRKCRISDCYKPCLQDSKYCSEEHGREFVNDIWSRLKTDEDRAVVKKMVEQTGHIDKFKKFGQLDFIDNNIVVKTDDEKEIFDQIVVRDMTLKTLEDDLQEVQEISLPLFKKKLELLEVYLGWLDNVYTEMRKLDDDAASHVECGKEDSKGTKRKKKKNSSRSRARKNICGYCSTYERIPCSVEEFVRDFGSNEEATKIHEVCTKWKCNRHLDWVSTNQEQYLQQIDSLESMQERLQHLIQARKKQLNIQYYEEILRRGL

FLAG-Set1 (full length) [1] = target: T2, FLAG-Set1 (full length) (S. cerevisiae, UniProt P38827 1-1080); experiment: SEC
T2 sequence (looked up): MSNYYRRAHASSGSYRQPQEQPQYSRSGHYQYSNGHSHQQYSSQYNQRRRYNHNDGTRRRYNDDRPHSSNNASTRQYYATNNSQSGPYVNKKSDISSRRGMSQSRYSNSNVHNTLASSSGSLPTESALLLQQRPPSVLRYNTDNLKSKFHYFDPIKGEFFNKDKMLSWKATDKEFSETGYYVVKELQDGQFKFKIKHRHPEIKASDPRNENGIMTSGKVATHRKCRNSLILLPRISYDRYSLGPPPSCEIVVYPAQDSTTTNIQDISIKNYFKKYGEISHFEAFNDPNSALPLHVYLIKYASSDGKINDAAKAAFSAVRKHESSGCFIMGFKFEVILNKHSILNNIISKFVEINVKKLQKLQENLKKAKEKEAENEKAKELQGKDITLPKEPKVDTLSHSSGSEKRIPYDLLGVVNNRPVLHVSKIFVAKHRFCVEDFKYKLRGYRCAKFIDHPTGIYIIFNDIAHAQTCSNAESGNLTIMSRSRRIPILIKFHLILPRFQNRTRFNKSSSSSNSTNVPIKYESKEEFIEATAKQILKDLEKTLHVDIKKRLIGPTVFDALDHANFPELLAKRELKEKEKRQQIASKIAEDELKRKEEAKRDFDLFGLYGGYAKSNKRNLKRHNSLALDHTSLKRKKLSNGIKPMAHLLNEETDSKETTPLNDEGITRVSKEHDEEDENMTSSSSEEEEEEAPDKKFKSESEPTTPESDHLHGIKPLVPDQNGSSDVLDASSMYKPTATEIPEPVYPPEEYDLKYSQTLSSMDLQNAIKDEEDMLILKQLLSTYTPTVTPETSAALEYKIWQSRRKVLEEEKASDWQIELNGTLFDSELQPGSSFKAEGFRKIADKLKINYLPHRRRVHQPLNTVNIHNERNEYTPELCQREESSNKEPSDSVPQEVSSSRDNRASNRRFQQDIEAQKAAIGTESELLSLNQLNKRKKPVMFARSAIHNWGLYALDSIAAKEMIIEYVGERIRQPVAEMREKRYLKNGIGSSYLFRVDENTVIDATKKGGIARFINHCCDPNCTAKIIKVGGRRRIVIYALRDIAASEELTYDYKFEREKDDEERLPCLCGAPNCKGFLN

FLAG-Swd2 (purified) = target: T3, FLAG-Swd2 (purified) (S. cerevisiae, UniProt P36104 1-329); experiment: pull-down
T3 sequence (looked up): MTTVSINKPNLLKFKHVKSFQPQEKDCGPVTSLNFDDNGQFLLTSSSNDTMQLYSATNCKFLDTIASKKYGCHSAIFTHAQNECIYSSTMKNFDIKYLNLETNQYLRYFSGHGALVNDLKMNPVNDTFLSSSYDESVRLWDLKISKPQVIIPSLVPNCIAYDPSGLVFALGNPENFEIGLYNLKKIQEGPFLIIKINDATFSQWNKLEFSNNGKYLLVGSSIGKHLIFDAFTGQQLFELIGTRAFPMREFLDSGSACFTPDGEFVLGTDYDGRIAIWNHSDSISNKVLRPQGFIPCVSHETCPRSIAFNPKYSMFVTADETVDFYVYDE

FLAG-Set1 (full length) [2] = target: T2, FLAG-Set1 (full length); experiment: affinity co-purification by the FLAG tag
FLAG-Set1 (full length) [3] = target: T2, FLAG-Set1 (full length); experiment: affinity co-purification by the FLAG tag; remark: listed apart in the source
[4] = target: T4, GST-Set1 fragment, residues 356–568 (S. cerevisiae, UniProt P38827 356-568); experiment: pull-down
T4 sequence (looked up): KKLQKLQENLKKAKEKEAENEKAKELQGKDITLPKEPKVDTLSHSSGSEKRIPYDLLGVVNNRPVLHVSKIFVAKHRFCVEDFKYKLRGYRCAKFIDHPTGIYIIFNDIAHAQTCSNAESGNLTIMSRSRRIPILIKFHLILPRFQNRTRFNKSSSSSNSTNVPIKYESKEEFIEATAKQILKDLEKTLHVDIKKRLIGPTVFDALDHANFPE

binding result (FLAG-Spp1 (purified)): binds
B1: GST-n-SET (Set1 residues 762–937) (domain or fragment, S. cerevisiae, UniProt P38827 762-937, looked up)
chain: MDLQNAIKDEEDMLILKQLLSTYTPTVTPETSAALEYKIWQSRRKVLEEEKASDWQIELNGTLFDSELQPGSSFKAEGFRKIADKLKINYLPHRRRVHQPLNTVNIHNERNEYTPELCQREESSNKEPSDSVPQEVSSSRDNRASNRRFQQDIEAQKAAIGTESELLSLNQLNKRK

binding result (FLAG-Set1 (full length) [1]): binds
B2: Spp1 (natural protein, S. cerevisiae, UniProt Q03012 1-353, looked up)
chain: T1 sequence (looked up)

binding result (FLAG-Swd2 (purified)): binds
B3: GST-Set1 fragment, residues 1–229 (domain or fragment, S. cerevisiae, UniProt P38827 1-229, looked up)
chain: MSNYYRRAHASSGSYRQPQEQPQYSRSGHYQYSNGHSHQQYSSQYNQRRRYNHNDGTRRRYNDDRPHSSNNASTRQYYATNNSQSGPYVNKKSDISSRRGMSQSRYSNSNVHNTLASSSGSLPTESALLLQQRPPSVLRYNTDNLKSKFHYFDPIKGEFFNKDKMLSWKATDKEFSETGYYVVKELQDGQFKFKIKHRHPEIKASDPRNENGIMTSGKVATHRKCRNSL

binding result (FLAG-Set1 (full length) [2]): binds
B4: Swd1 (natural protein, S. cerevisiae, UniProt P39706 1-426, looked up)
chain: MNILLQDPFAVLKEHPEKLTHTIENPLRTECLQFSPCGDYLALGCANGALVIYDMDTFRPICVPGNMLGAHVRPITSIAWSPDGRLLLTSSRDWSIKLWDLSKPSKPLKEIRFDSPIWGCQWLDAKRRLCVATIFEESDAYVIDFSNDPVASLLSKSDEKQLSSTPDHGYVLVCTVHTKHPNIIIVGTSKGWLDFYKFHSLYQTECIHSLKITSSNIKHLIVSQNGERLAINCSDRTIRQYEISIDDENSAVELTLEHKYQDVINKLQWNCILFSNNTAEYLVASTHGSSAHELYIWETTSGTLVRVLEGAEEELIDINWDFYSMSIVSNGFESGNVYVWSVVIPPKWSALAPDFEEVEENVDYLEKEDEFDEVDEAEQQQGLEQEEEIAIDLRTREQYDVRGNNLLVERFTIPTDYTRIIKMQSS

binding result (FLAG-Set1 (full length) [3]): binds
B5: Swd3 (natural protein, S. cerevisiae, UniProt P38123 1-315, looked up)
chain: MFQFVTPVGTQNGLKATCAKISPDGQFLAITQGLNILIYDINRRTVSQTLVTSHARPFSELCWSPDGQCIATASDDFSVEIIHLSYGLLHTFIGHTAPVISLTFNRKGNLLFTSSMDESIKIWDTLNGSLMKTISAHSEAVVSVDVPMNDSSILSSGSYDGLIRIFDAETGHCLKTLTYDKDWKRENGVVPISQVKFSENARYLLVKSLDGVVKIWDCIGGCVVRTFQVQPLEKGVLHHSCGMDFLNPEDGSTPLVISGYENGDIYCWNSDTKSLLQLLDGSLYHHSSPVMSIHCFGNIMCSLALNGDCCLWRWV

binding result (FLAG-Set1 (full length) [1]): binds
B6: Shg1 (natural protein, S. cerevisiae, UniProt P38337 1-142, looked up)
chain: MAYNQEDSKRLSDKYKKEGHFDKLKREILSNPWNNTEENSESFEQALRKRVASTVKEMVNEDEELIFKNRGLTSALIESQLVKDNYLKLGSKMEGDNGDGEKKFDLDVYVRSKLQDPKLLEMIKGQLQETLNSYEEEANGST

binding result [4]: binds
B7: FLAG-Shg1 (purified) (natural protein, S. cerevisiae, UniProt P38337 1-142, looked up)
chain: B6 chain

binding result (FLAG-Set1 (full length) [1]): binds
B8: Swd2 (natural protein, S. cerevisiae, UniProt P36104 1-329, looked up)
chain: T3 sequence (looked up)
